The values below come from article PMC5391958, “New function of aldoxime dehydratase: Redox catalysis and the formation of an expected product” (PLoS ONE, 2017).

Test in all cases: purified protein
Common to all, as to format: biochemical, Pseudomonas chlororaphis

Data set [1] relates to T1, CCn1c(=NN=c2sc3cc(S(=O)(=O)O)ccc3n2CC)sc2cc(S(=O)(=O)O)ccc21.
T1 construct: recombinant from pET-oxdA (mutants in pET-24a(+)), E. coli BL21-CodonPlus(DE3)-RIL, purified heme enzyme; Mr 40,127; no tag mentioned
The following applies: apparent.

The next data set concerns T2, COc1ccccc1O.
T2 construct: recombinant from pET-oxdA (mutants in pET-24a(+)), E. coli BL21-CodonPlus(DE3)-RIL, purified heme enzyme; Mr 40,127; no tag mentioned
The following applies: apparent.

Substrate in data set [2]: COc1ccccc1O
The following applies: apparent, 100 mM H2O2, 100 mM potassium phosphate pH 7.0, 30°C.

Substrate in data set [3]: CCn1c(=NN=c2sc3cc(S(=O)(=O)O)ccc3n2CC)sc2cc(S(=O)(=O)O)ccc21
The following applies: apparent, 25 mM H2O2, 100 mM potassium phosphate pH 7.0, 30°C.

Setting [4] is: 10 mM H2O2, 100 mM potassium phosphate pH 7.0, 30°C.
[5] abbreviates: 25 mM H2O2, 100 mM potassium phosphate pH 7.0, 30°C.
Setting [6] is: 100 mM H2O2, 100 mM potassium phosphate pH 7.0, 30°C.

In the case of “OxdA(WT); aldoxime dehydratase (OxdA) (Pseudomonas chlororaphis subsp. chlororaphis; H320A)”, in data set [1] (setting [4]), the Michaelis-Menten constant (Km) (as a rule, the concentration of substrate that gives half-maximal velocity) is 210 ± 30 µM; the Vmax (usually the top rate of the reaction or transport when substrate is in excess) worked out at 1.3 µmol/min/mg; the catalytic constant (kcat) (commonly the number of substrate molecules converted per active site and unit of time at saturation) was 0.85 ± 0.07 s⁻¹; the kcat/Km (in general, the turnover number divided by the Michaelis constant) is 4000 M⁻¹ s⁻¹. Further, in the data set on COc1ccccc1O (setting [5]), the Km amounted to 840 ± 170 µM, the maximal velocity (Vmax) was 1.2 µmol/min/mg, the turnover number (kcat) stood at 0.81 ± 0.05 s⁻¹ and the kcat/Km worked out at 970 M⁻¹ s⁻¹.
On to “OxdA(WT); aldoxime dehydratase (OxdA) (Pseudomonas chlororaphis subsp. chlororaphis; H320D)”, for which, in data set [1] (setting [5]), the Michaelis-Menten constant (Km) came out at 120 ± 20 µM, the maximum rate (Vmax) was 33 µmol/min/mg, the kcat was 22 ± 1 s⁻¹ and the kcat/Km was 190000 M⁻¹ s⁻¹. Besides, in the data set on COc1ccccc1O (setting [6]), the Km was 1000 ± 400 µM, the Vmax turned out to be 50 µmol/min/mg, the catalytic constant (kcat) stood at 33 ± 3 s⁻¹ and the catalytic efficiency (kcat/Km) was 32000 M⁻¹ s⁻¹.

B1: OxdA(WT); aldoxime dehydratase (OxdA) (Pseudomonas chlororaphis subsp. chlororaphis) (protein)
chain: MESAIDTHLKCPRTLSRRVPEEYQPPFPMWVARADEQLQQVVMGYLGVQYRGEAQREAALQAMRHIVSSFSLPDGPQTHDLTHHTDSSGFDNLMVVGYWKDPAAHCRWLRSAEVNDWWTSQDRLGEGLGYFREISAPRAEQFETLYAFQDNLPGVGAVMDSTSGEIEEHGYWGSMRDRFPISQTDWMKPTNELQVVAGDPAKGGRVVIMGHDNIALIRSGQDWADAEAEERSLYLDEILPTLQDGMDFLRDNGQPLGCYSNRFVRNIDLDGNFLDVSYNIGHWRSLEKLERWAESHPTHLRIFVTFFRVAAGLKKLRLYHEVSVSDAKSQVFEYINCHPHTGMLRDAVVAPT
notes: recombinant from pET-oxdA (mutants in pET-24a(+)), E. coli BL21-CodonPlus(DE3)-RIL, purified heme enzyme; Mr 40,127; no tag mentioned
B1: in the data set “purified protein [2]”, the Michaelis-Menten constant (Km) is 26 ± 10 µM, the maximal velocity (Vmax) turned out to be 20 µmol/min/mg, the kcat worked out at 14 ± 1 s⁻¹ and the kcat/Km was found to be 530000 M⁻¹ s⁻¹. Also, in the data set “purified protein [3]”, the Km came to 210 ± 40 µM, the Vmax was 3.4 µmol/min/mg, the kcat worked out at 2.3 ± 0.1 s⁻¹ and the specificity constant (kcat/Km) was found to be 11000 M⁻¹ s⁻¹.
